In assay [1] the target is T1, human OX40R extracellular domain fusion protein (CD134-muIg) (human, UniProt P43489).
T1 chain: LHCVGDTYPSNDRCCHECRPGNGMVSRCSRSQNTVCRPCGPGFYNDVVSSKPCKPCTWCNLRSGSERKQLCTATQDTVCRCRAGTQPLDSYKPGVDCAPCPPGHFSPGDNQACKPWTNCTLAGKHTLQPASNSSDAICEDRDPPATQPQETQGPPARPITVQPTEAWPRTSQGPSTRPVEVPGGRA
Briefly: ELISA. In general terms: ELISA stands for enzyme-linked immunosorbent assay.

In assay [2] the target is T2, CD271 (NGF receptor) ECD-IgG1 fusion (human, UniProt P08138).
T2 chain: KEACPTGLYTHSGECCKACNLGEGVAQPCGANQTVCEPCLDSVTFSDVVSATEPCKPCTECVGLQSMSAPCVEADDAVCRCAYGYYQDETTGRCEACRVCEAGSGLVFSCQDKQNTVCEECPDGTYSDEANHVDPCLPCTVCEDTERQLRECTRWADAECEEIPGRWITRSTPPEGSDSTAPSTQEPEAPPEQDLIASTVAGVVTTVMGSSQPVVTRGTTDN
Briefly: other, up to 700 nM.

The target of assay [3] is T3, CD137 (4-1BB) ECD-IgG1 fusion (human, UniProt Q07011). Briefly: other, up to 700 nM.
Assay [4] has as its target T4, CD40 ECD-IgG1 fusion (human, UniProt P25942). Kind of assay: other, up to 700 nM.
Assay [5] concerns the target T5, human OX40R on cells (human, UniProt P43489).
T5 chain: T1 chain
Briefly: FACS, CD3/CD28 stimulated T cells. In general terms: Flow cytometry measures light scatter and fluorescence of single cells or particles in a stream.

In assay [6] the target is T5, human OX40R on cells. Kind of assay: FACS, OX40R+ 300-19 cells.
The target of assay [7] is T1, human OX40R extracellular domain fusion …. Kind of assay: SPR.
The target of assay [8] is T5, human OX40R on cells. Kind of assay: FACS, human T cells.
For another assay, the target named is T6, murine OX40R ECD fusion (mouse, UniProt P47741).
T6 chain: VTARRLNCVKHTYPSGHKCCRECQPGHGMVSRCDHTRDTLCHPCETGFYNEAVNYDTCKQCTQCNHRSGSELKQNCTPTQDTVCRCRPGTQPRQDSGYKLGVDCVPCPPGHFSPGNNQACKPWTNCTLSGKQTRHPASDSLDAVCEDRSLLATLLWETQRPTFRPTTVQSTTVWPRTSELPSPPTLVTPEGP
Kind of assay: ELISA.

The target of assay [9] is T3, CD137 (4-1BB) ECD-IgG1 fusion. Kind of assay: other, up to 700 nM. This is another data set of the same source.
Assay [10] concerns the target T2, CD271 (NGF receptor) ECD-IgG1 fusion. Kind of assay: other, up to 700 nM.
For assay [11], the target named is T4, CD40 ECD-IgG1 fusion. Kind of assay: other, up to 700 nM. The source holds these as a separate data set.

Read-outs that look alike come from different tables or passages of the source.

T3 sequence (Q07011 24-186): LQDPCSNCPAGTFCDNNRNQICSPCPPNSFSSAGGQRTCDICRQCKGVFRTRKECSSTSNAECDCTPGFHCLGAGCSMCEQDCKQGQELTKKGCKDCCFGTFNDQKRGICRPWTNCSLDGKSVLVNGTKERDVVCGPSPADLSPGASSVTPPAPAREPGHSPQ
T4 sequence (P25942 21-193): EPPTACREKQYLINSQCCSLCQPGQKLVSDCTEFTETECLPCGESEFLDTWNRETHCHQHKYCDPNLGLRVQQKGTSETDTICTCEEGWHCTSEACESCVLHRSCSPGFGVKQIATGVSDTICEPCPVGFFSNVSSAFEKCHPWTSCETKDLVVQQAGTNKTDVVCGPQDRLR

B1: 11D4 (antibody, V domains shown)
VH: EVQLVESGGGLVQPGGSLRLSCAASGFTFSSYSMNWVRQAPGKGLEWVSYISSSSSTIDYADSVKGRFTISRDNAKNSLYLQMNSLRDEDTAVYYCARESGWYLFDYWGQGTLVTVSS
VL: DIQMTQSPSSLSASVGDRVTITCRASQGISSWLAWYQQKPEKAPKSLIYAASSLQSGVPSRFSGSGSGTDFTLTISSLQPEDFATYYCQQYNSYPPTFGGGTKVEIK
With B1, the EC50 in [1] came to 3.5 nM; with human OX40R on cells [5], 4 nM; with human OX40R on cells [6], 1.7 nM; in the assay with human OX40R on cells [8], 0.566 µg/mL. Also, the binding result (in assay [2]; in [3]; with CD40 ECD-IgG1 fusion [4]; with murine OX40R ECD fusion) was “no binding” in each case. In addition, the Kd in [7] is 0.48 nM.

B2: 18D8 (antibody, V domains shown)
VH: EVQLVESGGGLVQPGRSLRLSCAASGFTFDDYAMHWVRQAPGKGLEWVSGISWNSGSIGYADSVKGRFTISRDNAKNSLYLQMNSLRAEDTALYYCAKDQSTADYYFYYGMDVWGQGTTVTVSS
VL: EIVVTQSPATLSLSPGERATLSCRASQSVSSYLAWYQQKPGQAPRLLIYDASNRATGIPARFSGSGSGTDFTLTISSLEPEDFAVYYCQQRSNWPTFGQGTKVEIK
As to B2, the binding result (in assay [9]; in assay [10]; with CD40 ECD-IgG1 fusion [11]) was “no binding” each time.

Broadly, the EC50 is the concentration giving half of the maximal effect. What is called Kd is the free concentration of one partner at which half of the binding sites on the other are occupied at equilibrium, for simple one-to-one binding.

For the origin of these results see patent US9028824 (dated 2015).
